Source: patent publication US8323941B2, “Histone demethylation mediated by the nuclear amine oxidase homolog LSD1” (President and Fellows of Harvard College, priority 2004, dated 2012)
One block for each compound: values may come before it.

Key:
LSD1 [1] = target: LSD1 (Homo sapiens, UniProt O60341); test: LSD1 demethylation assay on nucleosomal substrates (mononucleosomes), Western blotting; format: biochemical; set-up: Full length (1-851aa) and C-terminal deleted (1-427 aa) human LSD1 cDNAs; 6xHis (N); made in house; host or cells: bacteria; details: for stimulation of LSD1 demethylation activity: CoREST deletion mutants
Experimental: Preparation of mononucleosome. Mononucleosome was made according to a standard protocol (Tagami et al., 2004; Utley et al., 1996). Briefly, nuclear pellet from both TSA-treated or non-treated HeLa cells was homogenized for 60 times with type A pestle to obtain oligo-nucleosomes. The oligo-nucleosomes were then digested with micrococcal nuclease (40 units/mL) for 10 mins at 30° C. The nuclease is inactivated by 5 mM EDTA. Digested materials were spun at 14000 rpm for 3 mins. Resulting supernatant was spun again for additional 3 mins at the same speed. Supernatant from the second spin was subject to 10-25% glycerol gradient sedimentation. The monocleosome-containing fractions were identified by examining aliquots of fractions (treated with proteinase K) on DNA agarose gel. An aliquot of TSA-treated or non TSA-treated mononucleosome, a kind gift from Dr. Yoshihiro Nakatani's Lab in Dana Faber Cancer Institute, Harvard Medical School (Tagami et al., 2004), was used here as a control for the quality of mononucleosome made in our lab.
Demethylation assay. LSD1 demethylation activity on free histone or nucleosomal histone was carried out as previously reported (Shi et al., 2004). Briefly, bulk histones or mononucleosomes were incubated with purified His-LSD1 with or without purified His-CoREST, His-CoREST mutants, His-BHC80 and/or GST-HDAC1 in the histone demethylase activity (HDM) assay buffer (50 mM Tris pH8.5, 50 mM KCl, 5 mM MgCl, 0.5% BSA and 5% glycerol) from 10 mins up to 1 hour at 37° C. The demethylase activity of LSD1 under various conditions was evaluated by Western blotting using K4-H3 methylation-specific antibodies.

SCN2A = details: Rat-1 fibroblast cells, TSA treatment; cited from earlier work
LSD1 target genes = test: RT-PCR of LSD1 target genes / mRNA in HeLa cells; format: cell-based, human; details: TSA treatment
From the text: RT-PCR. Total RNA samples were isolated from 2×10^6 cells by Trizol reagent (Sigma). After DNase treatment, the RNA samples were purified by phenol-chloroform extraction and ethanol precipitation. 38 PCR cycles were used for SCN1A, SCN2A, SCN3A and M4 AchR and 28 PCR cycles for GAPDH. Primers used in RT-PCR were as follows: SCN1A up (5′-[…]-3′; SEQ ID NO: 1), down (5′-[…]-3′; SEQ ID NO: 2); SCN2A up (5′-[…]-3′; SEQ ID NO: 3), down (5′-[…]-3′; SEQ ID NO: 4) SCN3A up (5′-[…]-3′; SEQ ID NO: 5), down (5′-[…]-3′; SEQ ID NO: 6); p57^KIP2 up (5′-[…]-3′; SEQ ID NO: 7), down (5′-[…]-3′; SEQ ID NO: 8); GAPDH up (5′-[…]-3′; SEQ ID NO: 9), down (5′-[…]-3′; SEQ ID NO: 10).
(§1) Knockdown LSD, CoREST and Proteasome inhibitor (PI) treatment. Stable cell lines which express mutant GFP-shRNA, CtBP-shRNA, LSD1-shRNA or CoREST-shRNA were generated as previously described (Shi et al., 2003; Sui et al., 2002). To prevent proteasome-mediated protein degradation, the cells were treated with ZL3VS at final concentration 10 μM for 24 hours in culture then harvested. The protein and mRNA levels of the shRNA-knockdown cells with or without PI treatment were estimated by Western blotting and RT-PCR as previously described (Shi et al., 2004).

LSD1 [2] = test: LSD1 protein level in knockdown cells (immunostaining, Western blotting); format: cell-based, human; details: CoREST shRNA treated cells; 10 μM for 24 hours
Experimental: as §1

GST-LSD1 = target: T1, GST-LSD1 (Homo sapiens, UniProt O60341); test: GST pulldown of HIS-tagged CoREST and mutants; format: binding; details: Coomassie Blue staining
T1 construct: made in house; host or cells: bacteria (inferred from 'similar procedure' to the His-tagged proteins)
Experimental: To identify domains of CoREST that are involved in physical interactions with LSD1, GST-LSD1 or GST was incubated with bacterially purified, HIS-tagged CoREST and its mutant derivatives. […] This places the putative LSD1-binding domain within the C-terminal functional domain of CoREST, somewhere between aa 293-381 of CoREST. […] We therefore speculate that the SANT2 domain may be involved in mediate binding to the nucleosomal substrate. Taken together, these findings are consistent with the idea that CoREST functions as a bridging protein. The weak stimulatory activity of the N-terminal CoREST (del1, aa 1-293) remains unclear at the present time.
GST and GSTLSD1 plamsids were kind gifts from Dr. Tadashi Baba's Lab in Japan (Iwase et al., 2004). Expression and purification of GST and GSTLSD1 proteins were done using similar procedure as outlined for purification of his-tagged recombinant proteins. For GST-bead pulldown experiment, 2 μg of each purified his-tagged wt or del CoREST proteins were incubated with 5 μg of bound GST and GSTLSD1 proteins at 4° C. for 4 hrs in a binding buffer (50 mM Tris, pH 8.0, 300 mM NaCl, 1 mM DTT, 0.5 mM EDTA and 0.1% NP-40). The beads were washed 3 times in the binding buffer, resuspended in 2×SDS protein sample buffer, boiled for 5 mins and loaded onto 15% SDS PAGE gel. The gel was then stained with Coomassie Blue.

HIS-LSD1 [3] = target: T2, HIS-LSD1 (Homo sapiens, UniProt O60341); test: Demethylase assay on histone H3 peptides, Western blotting with methyl-specific antibodies; format: biochemical; set-up: Full length (1-851aa) and C-terminal deleted (1-427 aa) human LSD1 cDNAs; 6xHis (N); made in house; host or cells: bacteria (IPTG induction); details: 1 μg LSD1, 1 nmole peptide; modification-specific antibody
From the text: LSD1 is a flavin-containing protein based on its ability to bind FAD ((Humphrey et al., 2001), and data not shown). Its sequence homology with amine oxidases predicts that LSD1 may catalyze oxidation reactions of biogenic amines including monoamine, polyamines or N-methylated protein substrates (such as histones) (Bannister et al., 2002). Amine oxidation catalyzed by flavin-containing amine oxidase is characterized by oxidative cleavage of the a-carbon bond of the substrate to form an imine intermiediate, which, in turn, is hydrolyzed to form an aldehyde and amine via a non-enzymatic process. In a complete catalytic cycle, the cofactor FAD is reduced to FADH2 and then is likely to be re-oxidized by oxygen to produce hydrogen peroxide (Binda et al., 2002). […] The HIS-LSD1 proteins were incubated with histone H3 peptides carrying dimethylated K4 (diMeK4H3) or K9 (diMeK9H3) and the methylation status was determined using a diMeK4H3 or diMeK9H3 specific antibody, respectively. […]
Demethylase assay. […] The reaction mixture was analyzed by SDS-PAGE/Western blotting using methyl-specific antibodies, or by formaldehyde formation assay to examine the removal and conversion of the methyl group to formaldehyde, or by mass spectrometry to identify the demethylated peptide.

HIS-LSD1 [4] = target: T2, HIS-LSD1; test: Demethylation-FDH coupled spectrophotometric assay (formaldehyde formation); format: biochemical; set-up: Full length (1-851aa) and C-terminal deleted (1-427 aa) human LSD1 cDNAs; 6xHis (N); made in house; details: for formaldehyde production (absorbance at OD 340 nm): peptide used as substrate of HIS-LSD1
From the text: We used a third independent method to investigate the possibility that LSD1 is a histone demethylase. […] To determine whether formaldehyde was produced in LSD1-mediated enzymatic reactions, we first used the formaldehyde dehydrogenase (FDH) assay to detect the presence of formaldehyde (Lizcano et al., 2000). This assay employs formaldehyde dehydrogenase to convert formaldehyde to formic acid using NAD^+ as the electron acceptor, whose reduction to NADH can be spectrophotometrically measured at OD 340 nm. Thus, when the demethylation reaction is coupled with the FDH assay, the enzymatic activity of LSD1 and reaction kinetics can be determined by measuring the production of NADH. A standard curve was first generated using purified FDH (EC 1.2.1.46), NAD^+ and different concentrations of formaldehyde ranging from 1 μM to 10 mM, within which a linear relationship was found between the production of NADH and the range of formaldehyde used in the assay. Subsequently, the coupled demethylation-FDH assays were carried out within this linear range and were initiated with the addition of the diMeK4H3 substrates. The continuous production of the formaldehyde as the demethylation proceeded was monitored by OD measurement at 340 nm at different time points. […] We next used the demethylation-FDH coupled spectrophotometric assay as another independent means to investigate the substrate specificity of LSD1.
Formaldehyde Dehydrogenase (FDH) assay. Formaldehyde formation was continuously monitored by a coupled spectrophotometric assay (Lizcano et al., 2000) using formaldehyde dehydrogenase (FDH). […] The absorbance at 340 nm (ε340=6.22 mM^−1 cm^−1 for NADH) was measured at each time point in a 0.5 min interval using Beckman DU640 spectrophotometer. The OD 340 nm absorbance at the moment of the substrate addition was considered as 0 and this was used as the 0 min time point. Over a 10 min period, a kinetic software program automatically recorded the absorbance at each time point. The data were analyzed using the Excel program. […]

Compound: CC(/C=C/C(=O)NO)=C\[C@@H](C)C(=O)c1ccc(N(C)C)cc1 [TSA, Trichostatin A]
difference in CoREST/LSD1-mediated demethylation, untreated vs TSA-treated nucleosomes (LSD1 [1]; hyperacetylated nucleosomes isolated from TSA-treated HeLa cells, less susceptible): approximately 4 fold | SCN2A expression (SCN2A): unaffected | expression of LSD1 target genes SCNA2 and SCNA3 (LSD1 target genes): de-repression

Compound: CC(C)C[C@@H](/C=C/S(C)(=O)=O)NC(=O)[C@H](CC(C)C)NC(=O)[C@H](CC(C)C)NC(=O)OCc1ccccc1 [ZL3VS]
LSD1 steady state level (LSD1 [2]): restored the LSD1 steady state level

Compound: HDAC1: Bacterially purified histone deacetylase 1
effect of added protein on ability of recombinant LSD1 to demethylate nucleosomal substrates (LSD1 [1]; bacterially purified protein added to recombinant LSD1): no effect

Compound: del 3: CoREST deletion mutant aa 105-381
stimulation of LSD1 demethylation activity (LSD1 [1]): fail to stimulate its activity | binding to LSD1 (GST-LSD1): bound LSD1

Compound: del 5: CoREST deletion mutant aa 293-381
stimulation of LSD1 demethylation activity (LSD1 [1]): fail to stimulate its activity | binding to LSD1 (GST-LSD1): bound LSD1

Continued, in another order:

formaldehyde production (absorbance at OD 340 nm) (HIS-LSD1 [4]): robust increase | Km (HIS-LSD1 [4]; purified HIS-LSD1, Lineweaver-Burk transformation, read-out: apparent Km for the diMeK4H3 substrates): ~30 µM
Compound: diMeK4H3: Synthetic histone H3 peptide (1-21 aa) carrying dimethylated K4
dimethylation level of H3 peptide after incubation with LSD1 (HIS-LSD1 [3]): effectively reduced dimethylation level at K4

formaldehyde production (absorbance at OD 340 nm) (HIS-LSD1 [4]): not
Compound: diMeK9H3: Synthetic histone H3 peptide (1-21aa) carrying dimethylated K9
dimethylation level of H3 peptide after incubation with LSD1 (HIS-LSD1 [3]): failed to reduce the dimethylation level at K9
